Source: US20060089489A1 (MATSUSHITA ELECTRIC INDUSTRIAL, published 2006)

Target: the molecule itself
Assay: CD spectrometry of 300 uM peptide in phosphate buffer pH 7.5 (self-assembly into nanofiber)

B1: Glu-Phe-Ile-Val-Ile-Phe-Lys peptide (EK7aa) (peptide)
peptide: EFIVIFK
notes: Synthetic designed peptide that self-assembles into amyloid-like nanofibers
binding result: binds
